The subject of data set [1] is FLAG-PPAR gamma, wild type.
In data set [2] the test system is Rb protein (Cell Signaling Technology).
For data set [3], the system named is purified histone H1 (Millipore).

For active cdk2/cyclin A kinase, in data set [1], the “in vitro CDK kinase assay, phosphorylation of the substrate” value (from here on “in vitro CDK kinase assay”) is “Other members of the cdk protein family did not phosphorylate PPAR gamma”.

Turning to active cdk2/cyclin E kinase, the “in vitro CDK kinase assay” value in data set [1] is “Other members of the cdk protein family did not phosphorylate PPAR gamma”. Turning to active cdk4/cyclin D1 kinase, the “in vitro CDK kinase assay” value in data set [1] was “Other members of the cdk protein family did not phosphorylate PPAR gamma”. On to active cdk5/p35 kinase, for which the “in vitro CDK kinase assay” value in the data set on FLAG-PPAR gamma S273A is “Mutation of serine 273 to alanine completely blocks phosphorylation of PPAR gamma”; in data set [3], “PPAR gamma is phosphorylated as efficiently under these conditions as is histone H1, a known substrate of the cdk5/p35 complex”; in data set [1] it was “The cdk5 site in murine PPAR gamma can be phosphorylated when incubated in vitro with cdk5 and its activating cofactor p35”. In data set [2], the “in vitro CDK5 kinase assay, phosphorylation of the substrate” value is “incubation with rosiglitazone does not inhibit the ability of cdk5 to phosphorylate the Rb protein”. With active cdk1/cdc2 kinase, in data set [1], the “in vitro CDK kinase assay” value is listed as “Other members of the cdk protein family did not phosphorylate PPAR gamma”.
